Measurements published in the supplement of paper PMC7877785.
± gives the uncertainty stated by the source.

Test: self-splicing fitness, log relative to wild type (ln ratio); higher = more splicing; Tetrahymena group I intron in knt gene, E. coli kanamycin selection, DiMSum; sequences stand for … in CUCUCU…GGAGGGAAAAGUUAUCAGGCAUGCACCUGGUAGCUAGUCUUUAAACCAAUAGAUUGCAUCGGUUUAAAAGGCAAGACCGUCAAAUUGCGGGAAAGGGGUCAACAGCCGUUCAGUACCAAGUCUCAGGGGAAACUUUGAGAUGGCCUUGCAAAGGGUAUGGUAAUAAGCUGACGGACAUGGUCCUAACCACGCAGCCAAGUCCUAAGUCAACAGAUCUUCUGUUGAUAUGGAUGCAGUUCACAGACUAAAUGUCGGUCGGGGAAGAUGUAUUCUUCUCAUAAGAUAUAGUCGGACCUCUCCUUAAUGGGAGCUAGCGGAUGAAGUGAUGCAACACUGGAGCCGCUGGGAACUAAUUUGUAUGCGAAAGUAUAUUGAUUAGUUUUGGAGUACUCGUGGUCG
Procedure, shortened: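 Six replicate transformations of E. coli BL21(DE3) with a pET-22b(+) library were grown overnight at 37°C or 30°C. The library randomised all eight P1ex-region intron nucleotides, the intron lying in the knt kanamycin-resistance gene, and plates were LB agar with or without 25 μg/mL kanamycin plus 100 μg/mL carbenicillin, 50 μM IPTG and 0.2% rhamnose. Pooled colonies were amplicon-sequenced on an Illumina HiSeq 2500, and fitness is the DiMSum error-weighted combination of wild-type-normalised replicate fold changes, kanamycin versus none.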

Sequence | self-splicing fitness (ln) (30 °C) | self-splicing fitness (ln) (37 °C)
CCGUAGCAAUAUUACGGCGA | -2.54 ± 0.21 | -2.62 ± 0.25
CCGUAGCAAUAUUACGGCUA | -3.49 ± 0.34 | -3.04 ± 0.35
CCGUAGCAAUAUUACGGUAG | -3.48 ± 0.2 | -2.97 ± 0.24
CCGUAGCAAUAUUACGUACA | -2.04 ± 0.14 | -1.8 ± 0.19
CCGUAGCAAUAUUACGUACU |  | -2.03 ± 0.32
CCGUAGCAAUAUUACGUCAC | -1.02 ± 0.27 | 
CCUAAGCAAUAUUACGAUAA | -2.87 ± 0.2 | -3.37 ± 0.28
CCUAAGCAAUAUUACGAUAC | -3.63 ± 0.4 | -2.3 ± 0.27
CCUAAGCAAUAUUACGAUGU | -2.84 ± 0.12 | -2.03 ± 0.15
CCUAAGCAAUAUUACGAUUG | -3.51 ± 0.19 | -1.68 ± 0.13
CCUAAGCAAUAUUACGCACU | -2.71 ± 0.23 | -2.96 ± 0.23
CCUAAGCAAUAUUACGCCUC | -2.59 ± 0.36 | 
CCUAAGCAAUAUUACGCGCC | -2.47 ± 0.26 | -1.63 ± 0.33
CCUAAGCAAUAUUACGCGGA | -2.38 ± 0.19 | -3.62 ± 0.46
CCUAAGCAAUAUUACGCUAG | -3.75 ± 0.47 | -1.64 ± 0.3
CCUAAGCAAUAUUACGCUUG | -4.18 ± 0.36 | -2.98 ± 0.26
CCUAAGCAAUAUUACGGAAC | -3.35 ± 0.3 | -1.68 ± 0.24
CCUAAGCAAUAUUACGGACG | -1.15 ± 0.059 | -0.303 ± 0.08
CCUAAGCAAUAUUACGGGGU | -3.28 ± 0.17 | -2.82 ± 0.17
CCUAAGCAAUAUUACGGUAA | -2.48 ± 0.24 | -2.73 ± 0.25
CCUAAGCAAUAUUACGGUGC | -2.79 ± 0.28 | -2.19 ± 0.32
CCUAAGCAAUAUUACGGUGU | -4.62 ± 0.23 | -1.89 ± 0.16
CCUAAGCAAUAUUACGUAGG | -3.82 ± 0.15 | -2.94 ± 0.22
CCUAAGCAAUAUUACGUCAC |  | -1.54 ± 0.49
CCUAAGCAAUAUUACGUGAC | -4.32 ± 0.3 | 

Sequence | self-splicing fitness (ln) (30 °C) | self-splicing fitness (ln) (37 °C)
CCUAAGCAAUAUUACGUGCC | -2.84 ± 0.3 | 
CCUCAGCAAUAUUACGACCG | -0.986 ± 0.093 | -0.493 ± 0.095
CCUCAGCAAUAUUACGAGGU | -3.38 ± 0.21 | -2.62 ± 0.19
CCUCAGCAAUAUUACGCAUU | -3.81 ± 0.19 | -2.3 ± 0.22
CCUCAGCAAUAUUACGCCGC | -3.72 ± 0.37 | 
CCUCAGCAAUAUUACGCGAA | -3.88 ± 0.34 | -3.79 ± 0.34
CCUCAGCAAUAUUACGCGAC | -3.47 ± 0.28 | -2.08 ± 0.22
CCUCAGCAAUAUUACGCUAA | -2.79 ± 0.14 | -3.05 ± 0.2
CCUCAGCAAUAUUACGCUGC | -3.53 ± 0.21 | -1.69 ± 0.24
CCUCAGCAAUAUUACGGAUA | -1.87 ± 0.15 | -2.41 ± 0.24
CCUCAGCAAUAUUACGGUCA | -3.48 ± 0.26 | -2.04 ± 0.15
CCUCAGCAAUAUUACGGUGU | -3.9 ± 0.27 | -1.76 ± 0.16
CCUCAGCAAUAUUACGUAGC | -3.9 ± 0.19 | -2.73 ± 0.28
CCUCAGCAAUAUUACGUAGG | -2.71 ± 0.18 | -2.38 ± 0.3
CCUCAGCAAUAUUACGUGAG | -0.99 ± 0.057 | -0.881 ± 0.071
CCUCAGCAAUAUUACGUGCA | -4.09 ± 0.37 | -2.32 ± 0.35
CCUCAGCAAUAUUACGUUGC | -3.32 ± 0.28 | -2.52 ± 0.32
CCUCAGCAAUAUUACGUUUA | -4.17 ± 0.2 | -2.57 ± 0.14
CCUGAGCAAUAUUACGACCG | -3.73 ± 0.39 | -2.5 ± 0.37
CCUGAGCAAUAUUACGAGAA | -3.46 ± 0.4 | -1.79 ± 0.29
CCUGAGCAAUAUUACGAGAC | -2.85 ± 0.33 | -0.69 ± 0.33
CCUGAGCAAUAUUACGAUUU | -3.27 ± 0.19 | -2.3 ± 0.16
CCUGAGCAAUAUUACGCACA | -1.53 ± 0.17 | -1.6 ± 0.35
CCUGAGCAAUAUUACGCGAU | -3.71 ± 0.18 | -2.25 ± 0.14
